This note sets out measurements from PMC9531996 (The Journal of Cell Biology, 2022).

Sequences and labels used below:
B1: WDR91-His6 (natural protein)
chain: MAEAVERTDELVREYLLFRGFTHTLRQLDAEIKADKEKGFRVDKIVDQLQQLMQVYDLAALRDYWSYLERRLFSRLEDIYRPTIHKLKTSLFRFYLVYTIQTNRNDKAQEFFAKQATELQNQAEWKDWFVLPFLPSPDTNPTFATYFSRQWADTFIVSLHNFLSVLFQCMPVPVILNFDAECQRTNQVQEENEVLRQKLFALQAEIHRLKKEEQQPEEEEALVQHKLPPYVSNMDRLGDSELAMVCSQRNASLSQSPRVGFLSSLLPQSKKSPSRLSPAQGPPQPQSSAKKESFGGQGTKGKDPTSGAKDGKSLLSGLATGESGWSQHRQRRLQDHGKERKELFSTTTSQCAEKKPEASGPEAEPCPELHTEPVEPLTRASSAGPEGGGVRPEQPFIVLGQEEYGEHHSSIMHCRVDCSGRRVASLDVDGVIKVWSFNPIMQTKASSISKSPLLSLEWATKRDRLLLLGSGVGTVRLYDTEAKKNLCEININDNMPRILSLACSPNGASFVCSAAAPSLTSQVDFSAPDIGSKGMNQVPGRLLLWDTKTMKQQLQFSLDPEPIAINCTAFNHNGNLLVTGAADGVIRLFDMQQHECAMSWRAHYGEVYSVEFSYDENTVYSIGEDGKFIQWNIHKSGLKVSEYSLPSDATGPFVLSGYSGYKQVQVPRGRLFAFDSEGNYMLTCSATGGVIYKLGGDEKVLESCLSLGGHRAPVVTVDWSTAMDCGTCLTASMDGKIKLTTLLAHKA

Experiment in all cases: pull-down
For one assay, the target named is GST-VPS35 (UniProt Q96QK1 1-796).
The target of another assay is GST-SNX27 (UniProt Q96L92 1-541).
A further assay deals with T1, His6-WDR91(392-747) (UniProt A4D1P6 392-747).
T1 sequence: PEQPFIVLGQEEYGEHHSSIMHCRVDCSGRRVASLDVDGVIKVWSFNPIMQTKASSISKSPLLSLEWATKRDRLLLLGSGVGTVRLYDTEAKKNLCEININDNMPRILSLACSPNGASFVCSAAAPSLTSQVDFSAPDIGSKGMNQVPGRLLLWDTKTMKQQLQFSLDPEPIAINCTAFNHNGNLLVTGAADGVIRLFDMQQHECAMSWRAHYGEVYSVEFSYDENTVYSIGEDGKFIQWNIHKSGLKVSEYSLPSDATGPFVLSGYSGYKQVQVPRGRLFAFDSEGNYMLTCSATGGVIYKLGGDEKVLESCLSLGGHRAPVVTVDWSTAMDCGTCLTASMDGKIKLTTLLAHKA

The assay “WDR91-His6” concerns the target B1.

In the case of B1, the binding result with GST-VPS35 and in the assay with GST-SNX27 was “binds” in each case.

B2: GST-SNX27(PX) (domain or fragment)
chain: EKQAVPISVPRYKHVEQNGEKFVVYNVYMAGRQLCSKRYREFAILHQNLKREFANFTFPRLPGKWPFSLSEQQLDARRRGLEEYLEKVCSIRVIGESDIMQEFLSESDENYNGVS
B2: the binding result with His6-WDR91(392-747) and in the assay with WDR91-His6 was “binds” in each case.

B3: GST-SNX2 (natural protein)
chain: MAAEREPPPLGDGKPTDFEDLEDGEDLFTSTVSTLESSPSSPEPASLPAEDISANSNGPKPTEVVLDDDREDLFAEATEEVSLDSPEREPILSSEPSPAVTPVTPTTLIAPRIESKSMSAPVIFDRSREEIEEEANGDIFDIEIGVSDPEKVGDGMNAYMAYRVTTKTSLSMFSKSEFSVKRRFSDFLGLHSKLASKYLHVGYIVPPAPEKSIVGMTKVKVGKEDSSSTEFVEKRRAALERYLQRTVKHPTLLQDPDLRQFLESSELPRAVNTQALSGAGILRMVNKAADAVNKMTIKMNESDAWFEEKQQQFENLDQQLRKLHVSVEALVCHRKELSANTAAFAKSAAMLGNSEDHTALSRALSQLAEVEEKIDQLHQEQAFADFYMFSELLSDYIRLIAAVKGVFDHRMKCWQKWEDAQITLLKKREAEAKMMVANKPDKIQQAKNEIREWEAKVQQGERDFEQISKTIRKEVGRFEKERVKDFKTVIIKYLESLVQTQQQLIKYWEAFLPEAKAIA
Consider B3, for which the binding result with WDR91-His6 is on record as “binds”.
